From patent US20250277026A1 (NOVAROCK BIOTHERAPEUTICS, published 2025)

How the values were obtained:
human Claudin-3 = target: T1, human Claudin-3 (human, UniProt O15551 1-220); experiment: FACS, CHO-K1 cells overexpressing Claudin-3 (CHO-K1-CLDN3), serial dilution, MFI
T1 construct: On transfected CHO-K1 cells, or endogenous on MCF7 cells; also called CLDN3
T1 sequence: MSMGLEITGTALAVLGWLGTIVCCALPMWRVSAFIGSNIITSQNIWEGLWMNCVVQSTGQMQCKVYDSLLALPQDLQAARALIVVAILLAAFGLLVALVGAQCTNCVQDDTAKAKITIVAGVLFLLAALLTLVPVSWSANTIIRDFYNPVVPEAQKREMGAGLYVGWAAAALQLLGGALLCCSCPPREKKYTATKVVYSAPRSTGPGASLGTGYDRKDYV

human Claudin-6 [1] = target: T2, human Claudin-6 (human, UniProt P56747 1-220); experiment: FACS, Claudin-6-HEK293 cells, 10 µg/ml, hybridoma-purified antibody
T2 construct: also called CLDN6
T2 sequence: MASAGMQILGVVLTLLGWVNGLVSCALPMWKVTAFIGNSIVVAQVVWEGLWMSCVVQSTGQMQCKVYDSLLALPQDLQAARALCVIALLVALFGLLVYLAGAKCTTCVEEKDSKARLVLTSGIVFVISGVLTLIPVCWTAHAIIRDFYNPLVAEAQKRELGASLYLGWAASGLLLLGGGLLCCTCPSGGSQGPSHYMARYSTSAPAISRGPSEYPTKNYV

human Claudin-6 [2] = target: T2, human Claudin-6; experiment: FACS, NEC8 cells (endogenous CLDN6), 10 µg/ml, hybridoma-purified antibody
Experimental: (§1) Cells were fixed with 2% PFA (Alfa Aesar, catalog number: J61899) for 15 minutes at 4° C. and then washed. […] Flow cytometric analyses were performed on a flow cytometry instrument (Intellicyte, IQue plus, Sartorius).

human Claudin-6 [3] = target: T2, human Claudin-6; experiment: FACS dose response, Claudin-6-HEK293 cells, hybridoma-purified antibody
Experimental: (§2) The anti-CLDN6 antibodies were also evaluated for their binding affinity to Claudin-6 overexpressing cell lines by FACS.

human Claudin-9 = target: T3, human Claudin-9 (human, UniProt O95484 1-217); experiment: FACS, Claudin-9-HEK293 cells, 10 µg/ml, hybridoma-purified antibody
T3 construct: On transfected HEK293 cells; also called CLDN9
T3 sequence: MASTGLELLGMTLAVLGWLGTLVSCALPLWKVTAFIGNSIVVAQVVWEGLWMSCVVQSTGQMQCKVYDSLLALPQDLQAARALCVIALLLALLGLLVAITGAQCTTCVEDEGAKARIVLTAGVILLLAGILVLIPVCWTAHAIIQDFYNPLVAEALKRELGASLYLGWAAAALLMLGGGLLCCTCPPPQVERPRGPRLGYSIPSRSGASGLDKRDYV

human Claudin-6 [4] = target: T2, human Claudin-6; experiment: FACS dose response, NEC8 cells (endogenous CLDN6), hybridoma-purified antibody
Experimental: as §1, §2

human Claudin-6 [5] = target: T2, human Claudin-6; experiment: FACS dose response, Claudin-6-CHO-K1 cells, hybridoma-purified antibody
Experimental: as §2

B1: NR.N6.Ab6 (antibody, V domains shown)
VH: QVQLQESGPGLVKPSETLSLTCTVSGGSISSYYWSWIRQPPGKGLEWIGYIYYSGSTNYNPSLKSRVTISLDTSKNQFSLKLTSVTAADTAVYYCARGSIPVAGTSYFYYYGMDVWGQGTTVTVSS
VL: EIVMTQSPATLSLSPGERATLSCRASQSVSSSYLSWYQQKPGQAPRLLIYGASTRATGIPARFSGSGSGTDFTLTISSLQPEDFAVYYCQQDYNLPWTFGQGTKVEIK
B1 was tested, and the binding result (human Claudin-3) was “no binding (tested: log 1.8 (about 67 nM))”, the “fold MFI over isotype control” value (human Claudin-6 [1]) was 60 fold and the “fold MFI over isotype control” value (human Claudin-6 [2]) was 23 fold. For the same binder, the EC50 (human Claudin-6 [3]) was 4.11 nM, the “fold MFI over isotype control” value (human Claudin-9) was 47 fold and the EC50 (human Claudin-6 [4]) was 5.63 nM. It also gave an EC50 (human Claudin-6 [5]) of 3.06 nM.
